Experimental findings from article PMC2082129, “A Switch in the Mechanism of Communication between the Two DNA-Binding Sites in the SfiI Restriction Endonuclease” (Journal of Molecular Biology, 2007) are described below.

Where a chain is given by its changes, count along the chain named. Names may count otherwise.

This series concerns the molecule itself. Description: AUC; sedimentation equilibrium at 20 °C; 2.5 μM enzyme (tetramer) with 2.5 μM HEX-21 DNA duplex; AUC buffer (10 mM Tris-HCl, 50 mM NaCl, 10 mM CaCl2, 1 mM DTT, pH 7.9); absorbance of the HEX label at 539 nm; 10,000, 15,000 and 25,000 rpm, global fit to a single species; oligomeric state of the protein bound to DNA.

B1: SfiI restriction endonuclease, wild type (enzyme)
chain: MHQDYRELSLDELESVEKQTLRTIVQALQQYSKEAKSIFETTAADSSGEVIVLAEDITQYALEVAETYPINRRFAGFIDYKRVRWLPSPHGLLPQVLLVDAKASTEKNRDTLQRSQLPMDAEFRNTSSGEVVTMEAGVIPHLMLQSANDGVLPAVTTSIFVHFYYRELKDVEGRYRELKSIYVLSLPHARLKQRYNPDPDTSFFGAGKHSPARGEVARIRVYFDRLKEACPWRLQELHYSADSEYTQPRWRDLNDAGHEVTKEFLFLER
notes: SfiI restriction endonuclease, expressed from the SfiI restriction gene on pRRS-SfiIR+; tetramer of identical subunits, Mr of the tetramer printed as 124,176; The plasmid carries the SfiI restriction gene, and the printed tetramer Mr of 124,176 fits four whole subunits; In the AUC the protein stood with the 21-bp DNA duplex HEX-21 and Ca2+; also called wt SfiI; SfiI endonuclease; source: E. coli …
The term stoichiometry N denotes the number of molecules, sites or subunits per partner or assembly. B1: the “stoichiometry N” value was found to be 4.

B2: SfiI restriction endonuclease, Y68F mutant (enzyme)
chain: B1 chain with Y68F
notes: SfiI restriction endonuclease with Tyr68 replaced by Phe (QuikChange mutagenesis of pRRS-SfiIR+); Same construct as m1 apart from Y68F; also called Y68F protein; source: E. coli ER2238 (transformed with pSYX33-SfiIM+ and a derivative of pRRS-SfiIR+), purified as described previously
Consider B2, for which the “stoichiometry N” value came out at 4.
